Residue numbers refer to the chain shown, from its start. In names and notes the source's numbering stands.
B1: non-YPet-tagged CNNM3: purified non-fluorescence-tagged CBS domain of human CNNM3 (protein)
chain: YSDLSKGVLRCRTVEDVLTPLEDCFMLDASTVLDFGVLASIMQSGHTRIPVYEEERSNIVDMLYLKDLAFVDPEDCTPLSTITRFYNHPLHFVFNDTKLDAVLEEFKRGKSHLAIVQKVNNEGEGDPFYEVLGLVTLEDVIEEIIRSEILDE
modifications: left off: His tag (from the vector pET28a and the Ni-NTA purification), end not stated, state not stated
B2: CNNM3 CBS domain D426A mutant: CNNM3 CBS domain with D426A mutation at the PRL2-binding site (protein)
chain: B1 chain with D126A
modifications: left off: His tag (from the vector pET28a and the Ni-NTA purification), end not stated, state not stated
B3: PRL1: purified non-fluorescence protein-tagged human PRL1 (protein)
chain: MARMNRPAPVEVTYKNMRFLITHNPTNATLNKFIEELKKYGVTTIVRVCEATYDTTLVEKEGIHVLDWPFDDGAPPSNQIVDDWLSLVKIKFREEPGCCIAVHCVAGLGRAPVLVALALIEGGMKYEDAVQFIRQKRRGAFNSKQLLYLEKYRPKMRLRFKDSNGHRNNCCIQ
B4: PRL2: purified non-fluorescence protein-tagged human PRL2 (residues 1–167) (protein)
chain: MNRPAPVEISYENMRFLITHNPTNATLNKFTEELKKYGVTTLVRVCDATYDKAPVEKEGIHVLDWPFDDGAPPPNQIVDDWLNLLKTKFREEPGCCVAVHCVAGLGRAPVLVALALIECGMKYEDAVQFIRQKRRGAFNSKQLLYLEKYRPKMRLRFRDTNGHCCVQ
modifications: left off: His tag (from the vector pET28a and the Ni-NTA purification), end not stated, state not stated

Tested on: binding of CNNM3-YPet and CyPet-PRL2 (CNNM3-PRL2 complex)
Assay: FRET-based inhibition test of the binding of CNNM3-YPet and CyPet-PRL2
Set-up: species or system human
Settings: CNNM3-YPet 200 nM, CyPet-PRL2 200 nM, n = 6; for FRET intensity abolished / inhibition of complex formation: pre-incubated 20 min R.T. with binding partner, TBS pH 8.0, mean
Procedure: FRET measurements were conducted in TBS (50 mM Tris–HCl (pH 8.0) and 150 mM NaCl). Proteins were mixed in 96-well plates and incubated at R.T. for 1 h. Fluorescence intensities were measured using an excitation wavelength of 435 nm and an emission wavelength of 530 nm with a Cytation 3 (BioTek).
The emission spectra were measured with each component at 200 nM using the Cytation 3 (BioTek) with 435 nm excitation (Supplementary Fig. 2), and the original data are shown in Supplementary Table 1. The FRET intensity was calculated by Eq. (1).1 IFRET=IA-raw-Dleakage-Adirect where IA-raw is the intensity measured at 530 nm with 435 nm excitation, Dleakage is the leakage of the donor emission into the acceptor wavelength (530 nm) upon donor excitation, and Adirect is the direct excitation of the acceptor with the donor wavelength (435 nm).
The inhibition of complex formation was assayed by pre-incubating the binding partner (200 nM) with inhibitory factors (1, 10 μM) for 20 min at R.T., followed by addition of the other protein (200 nM) (Figs. 3B, 4C). The effects of divalent cations (10 mM) and nucleotides (3 mM) were also assayed similarly (Fig. 5).
The peptides for the peptide inhibition test were synthesized by Shanghai Dechi Biosciences (Fig. 6C,D). The peptide sequences were as follows: peptide 1, IVQKVNNEGEGDPFYEVLG; peptide 2, […] (an S–S bond was formed between the cysteine residues, as verified by HPLC and mass spectrometry). The peptides were dissolved in TBS buffer at 10 mM before use.
FRET data were evaluated by subtracting backgrounds (fluorescence intensities of CyPet-PRL2, CNNM3-YPet and a blank well). All data analysis was performed using GraphPad Prism 6 (GraphPad Software) with the methods described in each legend.

Molecule | FRET intensity abolished / inhibition of complex formation (inhibitory protein 1 μM) [%] | FRET intensity abolished / inhibition of complex formation (inhibitory protein 10 μM) [%] | effect of added protein on FRET intensity (in words) (inhibitory protein 1 and 10 μM)
B1 | 77.7 | 89.2 | 
B2 |  | 12.9 | little effect on the FRET intensity
B3 | 61.6 | 90.0 | 
B4 | 85.5 | 89.7 | 

From PMC7393355, “A FRET-based screening method to detect potential inhibitors of the binding of CNNM3 to PRL2” (Scientific Reports, 2020)
